Measurements: the supplement of paper PMC9112550, “Optimization of the antimicrobial peptide Bac7 by deep mutational scanning” (BMC Biology, 2022)

system: Escherichia coli TOP10; test: shrunken log2 fold change of peptide-encoding DNA abundance (4.5 h post-induction vs induction); higher = less antimicrobial activity (less host growth inhibition); conditions: time post-induction: 4.5 h; library: site-saturation at positions 5, 18, 19, 20
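Note: peptides expressed intracellularly from a pBAD plasmid library in pooled LB shake-flask culture, induced with 0.3% L-arabinose, DNA abundance read by NGS, three biological replicates, DESeq2 with apeglm shrinkage.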

| Sequence | shrunken log2 fold change |
| --- | --- |
| RRIRTRPPRLPRPRPRPWKVPRP | -0.00663 |
| RRIRIRPPRLPRPRPRPNCSPRP | -0.175 |
| RRIRFRPPRLPRPRPRPKCHPRP | -0.42 |
| RRIRMRPPRLPRPRPRPIVWPRP | -0.0994 |
| RRIRIRPPRLPRPRPRPLIRPRP | -0.508 |
| RRIRRRPPRLPRPRPRPRRQPRP | 0.554 |
| RRIRDRPPRLPRPRPRPHQEPRP | -0.281 |
| RRIRLRPPRLPRPRPRPPAVPRP | 0.341 |
| RRIRPRPPRLPRPRPRPFYYPRP | -0.838 |
| RRIRARPPRLPRPRPRPCGRPRP | 0.526 |
| RRIRCRPPRLPRPRPRPWMIPRP | -0.0852 |
| RRIRGRPPRLPRPRPRPPLYPRP | 0.459 |
| RRIRYRPPRLPRPRPRPIIWPRP | -0.152 |
| RRIRFRPPRLPRPRPRPNREPRP | -0.181 |
| RRIRLRPPRLPRPRPRPHCDPRP | 0.00399 |
| RRIRIRPPRLPRPRPRPTEPPRP | 0.0374 |
| RRIRFRPPRLPRPRPRPAHQPRP | -0.15 |
| RRIRNRPPRLPRPRPRPHTQPRP | -0.328 |
| RRIRVRPPRLPRPRPRPASLPRP | -0.372 |
| RRIRDRPPRLPRPRPRPWDGPRP | -0.0761 |
| RRIRFRPPRLPRPRPRPPFNPRP | -0.245 |
| RRIRVRPPRLPRPRPRPHWDPRP | -0.473 |
| RRIRDRPPRLPRPRPRPQMPPRP | -0.486 |
| RRIRERPPRLPRPRPRPEPLPRP | -0.091 |
| RRIRHRPPRLPRPRPRPVAPPRP | 0.222 |

| Sequence | shrunken log2 fold change |
| --- | --- |
| RRIRMRPPRLPRPRPRPGKYPRP | 0.0424 |
| RRIRHRPPRLPRPRPRPVCTPRP | -0.108 |
| RRIRKRPPRLPRPRPRPGYGPRP | 0.13 |
| RRIRERPPRLPRPRPRPTARPRP | 0.258 |
| RRIRYRPPRLPRPRPRPSWRPRP | -0.137 |
| RRIRCRPPRLPRPRPRPPIVPRP | -0.089 |
| RRIRTRPPRLPRPRPRPNYYPRP | -0.66 |
| RRIRMRPPRLPRPRPRPKIYPRP | -0.107 |
| RRIRNRPPRLPRPRPRPMCDPRP | -0.386 |
| RRIRIRPPRLPRPRPRPCDAPRP | -0.27 |
| RRIRRRPPRLPRPRPRPRLGPRP | 0.76 |
| RRIRARPPRLPRPRPRPPFCPRP | 0.31 |
| RRIRGRPPRLPRPRPRPHCFPRP | 0.233 |
| RRIRYRPPRLPRPRPRPFSIPRP | -0.000407 |
| RRIRRRPPRLPRPRPRPNMTPRP | -0.136 |
| RRIRLRPPRLPRPRPRPFMMPRP | -0.449 |
| RRIRKRPPRLPRPRPRPPESPRP | 0.303 |
| RRIRSRPPRLPRPRPRPNLYPRP | -0.167 |
| RRIRGRPPRLPRPRPRPWQCPRP | 0.0158 |
| RRIRPRPPRLPRPRPRPFCRPRP | 0.00205 |
| RRIRCRPPRLPRPRPRPTMYPRP | -0.541 |
| RRIRVRPPRLPRPRPRPTIGPRP | 0.178 |
| RRIRCRPPRLPRPRPRPLRQPRP | 0.713 |
| RRIRPRPPRLPRPRPRPEQPPRP | 0.184 |
| RRIRFRPPRLPRPRPRPGKHPRP | -0.294 |

| Sequence | shrunken log2 fold change |
| --- | --- |
| RRIRERPPRLPRPRPRPFKCPRP | -0.457 |
| RRIRYRPPRLPRPRPRPTQPPRP | 0.409 |
| RRIRWRPPRLPRPRPRPCHQPRP | -0.0867 |
| RRIRWRPPRLPRPRPRPSYSPRP | -0.705 |
| RRIRSRPPRLPRPRPRPDFHPRP | -0.751 |
| RRIRTRPPRLPRPRPRPVVDPRP | 0.452 |
| RRIRNRPPRLPRPRPRPGYHPRP | -0.37 |
| RRIRQRPPRLPRPRPRPEQKPRP | 0.039 |
| RRIRNRPPRLPRPRPRPDCTPRP | 0.0531 |
| RRIRKRPPRLPRPRPRPKILPRP | 0.362 |
| RRIRVRPPRLPRPRPRPMVCPRP | -0.062 |
| RRIRIRPPRLPRPRPRPLSCPRP | -0.253 |
| RRIRYRPPRLPRPRPRPLNRPRP | -1.92 |
| RRIRGRPPRLPRPRPRPELNPRP | 0.724 |
| RRIRVRPPRLPRPRPRPPDYPRP | -0.114 |
| RRIRFRPPRLPRPRPRPRQHPRP | 0.0181 |
| RRIRQRPPRLPRPRPRPGQNPRP | -0.223 |
| RRIRNRPPRLPRPRPRPVFYPRP | -0.19 |
| RRIRNRPPRLPRPRPRPHMHPRP | -0.582 |
| RRIRMRPPRLPRPRPRPSSHPRP | 0.0506 |
| RRIRDRPPRLPRPRPRPQYGPRP | -0.414 |
| RRIRRRPPRLPRPRPRPDAFPRP | 0.737 |
| RRIRTRPPRLPRPRPRPAMEPRP | -0.0176 |
| RRIRNRPPRLPRPRPRPAVFPRP | 0.0636 |
| RRIRDRPPRLPRPRPRPSKMPRP | -0.0126 |

| Sequence | shrunken log2 fold change |
| --- | --- |
| RRIRARPPRLPRPRPRPFNMPRP | -0.201 |
| RRIRQRPPRLPRPRPRPNLIPRP | -0.556 |
| RRIRRRPPRLPRPRPRPNWTPRP | -0.285 |
| RRIRPRPPRLPRPRPRPKESPRP | 0.13 |
| RRIRERPPRLPRPRPRPEDKPRP | -0.034 |
| RRIRCRPPRLPRPRPRPCEHPRP | -0.328 |
| RRIRGRPPRLPRPRPRPLEQPRP | 0.435 |
| RRIRSRPPRLPRPRPRPEREPRP | -0.0693 |
| RRIRWRPPRLPRPRPRPIAHPRP | -0.074 |
| RRIRLRPPRLPRPRPRPVGQPRP | 0.0826 |
| RRIRQRPPRLPRPRPRPPFKPRP | -0.0455 |
| RRIRGRPPRLPRPRPRPRNVPRP | 0.642 |
| RRIRIRPPRLPRPRPRPNLGPRP | -0.109 |
| RRIRNRPPRLPRPRPRPFAPPRP | -0.0816 |
| RRIRDRPPRLPRPRPRPFMTPRP | -0.185 |
| RRIRMRPPRLPRPRPRPWKLPRP | -0.133 |
| RRIRRRPPRLPRPRPRPSWGPRP | -0.0778 |
| RRIRTRPPRLPRPRPRPCRIPRP | -0.0965 |
| RRIRARPPRLPRPRPRPEERPRP | 1.11 |
| RRIRHRPPRLPRPRPRPINKPRP | -0.652 |
| RRIRSRPPRLPRPRPRPSEQPRP | -0.0884 |
| RRIRPRPPRLPRPRPRPHPMPRP | -0.0882 |
| RRIRHRPPRLPRPRPRPVSDPRP | 0.132 |
| RRIRQRPPRLPRPRPRPVHPPRP | 0.211 |
| RRIRHRPPRLPRPRPRPSCAPRP | 0.137 |

| Sequence | shrunken log2 fold change |
| --- | --- |
| RRIRERPPRLPRPRPRPDTSPRP | -0.417 |
| RRIRERPPRLPRPRPRPFFKPRP | -0.37 |
| RRIRQRPPRLPRPRPRPLRGPRP | 0.664 |
| RRIRTRPPRLPRPRPRPQYSPRP | -0.056 |
| RRIRQRPPRLPRPRPRPKHKPRP | -0.0629 |
| RRIRLRPPRLPRPRPRPLNHPRP | -0.355 |
| RRIRFRPPRLPRPRPRPIKNPRP | -0.514 |
| RRIRARPPRLPRPRPRPFLSPRP | -0.107 |
| RRIRERPPRLPRPRPRPGVMPRP | 0.0523 |
| RRIRQRPPRLPRPRPRPFCNPRP | 0.0828 |
| RRIRCRPPRLPRPRPRPMWAPRP | 0.378 |
| RRIRLRPPRLPRPRPRPQNGPRP | -0.146 |
| RRIRLRPPRLPRPRPRPIFDPRP | -0.0489 |
| RRIRRRPPRLPRPRPRPDWCPRP | 0.201 |
| RRIRMRPPRLPRPRPRPCKIPRP | -0.0518 |
| RRIRFRPPRLPRPRPRPWYCPRP | -0.706 |
| RRIRERPPRLPRPRPRPQIKPRP | -0.723 |
| RRIRKRPPRLPRPRPRPYGFPRP | -0.294 |
| RRIRTRPPRLPRPRPRPYRNPRP | -0.21 |
| RRIRHRPPRLPRPRPRPRWGPRP | 0.255 |
| RRIRTRPPRLPRPRPRPRPFPRP | 0.114 |
| RRIRNRPPRLPRPRPRPMIVPRP | -0.017 |
| RRIRARPPRLPRPRPRPVEQPRP | 0.446 |
| RRIRWRPPRLPRPRPRPVHAPRP | 0.109 |
| RRIRDRPPRLPRPRPRPIDPPRP | -0.107 |

| Sequence | shrunken log2 fold change |
| --- | --- |
| RRIRGRPPRLPRPRPRPGWGPRP | 0.73 |
| RRIRDRPPRLPRPRPRPSFWPRP | 0.585 |
| RRIRYRPPRLPRPRPRPPNSPRP | -0.384 |
| RRIRVRPPRLPRPRPRPSFYPRP | -0.872 |
| RRIRARPPRLPRPRPRPDVMPRP | 0.0669 |
| RRIRERPPRLPRPRPRPFAFPRP | -0.0942 |
| RRIRYRPPRLPRPRPRPARFPRP | 0.181 |
| RRIRLRPPRLPRPRPRPCYEPRP | -0.284 |
| RRIRGRPPRLPRPRPRPLKTPRP | 0.58 |
| RRIRWRPPRLPRPRPRPGMEPRP | 0.302 |
| RRIRNRPPRLPRPRPRPCHVPRP | 0.0112 |
| RRIRVRPPRLPRPRPRPEVDPRP | 0.296 |
| RRIRARPPRLPRPRPRPDELPRP | 0.63 |
| RRIRFRPPRLPRPRPRPTTLPRP | -0.0787 |
| RRIRVRPPRLPRPRPRPPFHPRP | 0.0102 |
| RRIRDRPPRLPRPRPRPECHPRP | 0.479 |
| RRIRMRPPRLPRPRPRPTGSPRP | 1.34 |
| RRIRHRPPRLPRPRPRPCNDPRP | -0.283 |
| RRIRFRPPRLPRPRPRPHNVPRP | 0.0631 |
| RRIRKRPPRLPRPRPRPGAAPRP | 1.54 |
| RRIRKRPPRLPRPRPRPMDFPRP | -0.0018 |
| RRIRNRPPRLPRPRPRPECAPRP | 0.00267 |
| RRIRNRPPRLPRPRPRPNMDPRP | -0.0443 |
| RRIRCRPPRLPRPRPRPWLIPRP | -0.564 |
| RRIRIRPPRLPRPRPRPNNQPRP | -0.836 |
